In assay [1] the test system is GFP-14-3-3β and its binding proteins. Briefly: GFP-14-3-3β co-IP with LC-MS/MS label-free quantification, untreated versus PP1c-treated. Also noted: species or system human.
A further assay deals with GFP-14-3-3β. The assay can be described thus: GFP-14-3-3β co-IP with LC-MS/MS, untreated GFP-14-3-3β versus GFP control (14-3-3 interactome). In kind it is binding, human.
The mark [2] stands for this setting: PP1 vs untreated, LFQ intensities, replicates 1-3.
The mark [3] stands for this setting: untreated vs GFP, LFQ intensities, replicates 1-3.

B1: PHB (protein, UniProt P35232 2-272, looked up)
Prohibitin 1: AAKVFESIGKFGLALAVAGGVVNSALYNVDAGHRAVIFDRFRGVQDIVVGEGTHFLIPWVQKPIIFDCRSRPRNVPVITGSKDLQNVNITLRILFRPVASQLPRIFTSIGEDYDERVLPSITTEILKSVVARFDAGELITQRELVSRQVSDDLTERAATFGLILDDVSLTHLTFGKEFTEAVEAKQVAQQEAERARFVVEKAEQQKKAAIISAEGDSKAAELIANSLATAGDGLIELRKLEAAEDIAYQLSRSRNITYLPAGQSVLLQLPQ
Turning to B1, in assay [1] (log2 difference, pairwise comparison PP1 vs untreated, label-free quantification, 3 replicates each), the “Difference (log2), PP1 vs untreated” value is 1.5807. For the same molecule, the “Difference (log2), untreated vs GFP” value in the assay with GFP-14-3-3β (log2 difference, pairwise comparison untreated vs GFP, label-free quantification, 3 replicates each) is listed as 1.469.

B2: LMNB1 (protein, UniProt P20700 2-583, looked up)
Lamin-B1: ATATPVPPRMGSRAGGPTTPLSPTRLSRLQEKEELRELNDRLAVYIDKVRSLETENSALQLQVTEREEVRGRELTGLKALYETELADARRALDDTARERAKLQIELGKCKAEHDQLLLNYAKKESDLNGAQIKLREYEAALNSKDAALATALGDKKSLEGDLEDLKDQIAQLEASLAAAKKQLADETLLKVDLENRCQSLTEDLEFRKSMYEEEINETRRKHETRLVEVDSGRQIEYEYKLAQALHEMREQHDAQVRLYKEELEQTYHAKLENARLSSEMNTSTVNSAREELMESRMRIESLSSQLSNLQKESRACLERIQELEDLLAKEKDNSRRMLTDKEREMAEIRDQMQQQLNDYEQLLDVKLALDMEISAYRKLLEGEEERLKLSPSPSSRVTVSRASSSRSVRTTRGKRKRVDVEESEASSSVSISHSASATGNVCIEEIDVDGKFIRLKNTSEQDQPMGGWEMIRKIGDTSVSYKYTSRYVLKAGQTVTIWAANAGVTASPPTDLIWKNQNSWGTGEDVKVILKNSQGEEVAQRSTVFKTTIPEEEEEEEEAAGVVVEEELFHQQGTPRASNRSC
Take B2: in assay [1] (setting [2]), the “Difference (log2), PP1 vs untreated” value is reported as -1.41 log2. In addition, the “Difference (log2), untreated vs GFP” value in the assay with GFP-14-3-3β (setting [3]) was 2.359 log2.

B3: HNRNPA0 (protein, UniProt Q13151 1-305, looked up)
Heterogeneous nuclear …: MENSQLCKLFIGGLNVQTSESGLRGHFEAFGTLTDCVVVVNPQTKRSRCFGFVTYSNVEEADAAMAASPHAVDGNTVELKRAVSREDSARPGAHAKVKKLFVGGLKGDVAEGDLIEHFSQFGTVEKAEIIADKQSGKKRGFGFVYFQNHDAADKAAVVKFHPIQGHRVEVKKAVPKEDIYSGGGGGGSRSSRGGRGGRGRGGGRDQNGLSKGGGGGYNSYGGYGGGGGGGYNAYGGGGGGSSYGGSDYGNGFGGFGSYSQHQSSYGPMKSGGGGGGGGSSWGGRSNSGPYRGGYGGGGGYGGSSF
Take B3: the “Difference (log2), PP1 vs untreated” value in assay [1] (setting [2]) is listed as -1.439 log2. Also, the “Difference (log2), untreated vs GFP” value in the assay on GFP-14-3-3β (setting [3]) is reported as 3.698 log2.

B4: GAPVD1 (protein, UniProt Q14C86 1-1478, looked up)
GTPase-activating protein and …: MVKLDIHTLAHHLKQERLYVNSEKQLIQRLNADVLKTAEKLYRTAWIAKQQRINLDRLIITSAEASPAECCQHAKILEDTQFVDGYKQLGFQETAYGEFLSRLRENPRLIASSLVAGEKLNQENTQSVIYTVFTSLYGNCIMQEDESYLLQVLRYLIEFELKESDNPRRLLRRGTCAFSILFKLFSEGLFSAKLFLTATLHEPIMQLLVEDEDHLETDPNKLIERFSPSQQEKLFGEKGSDRFRQKVQEMVESNEAKLVALVNKFIGYLKQNTYCFPHSLRWIVSQMYKTLSCVDRLEVGEVRAMCTDLLLACFICPAVVNPEQYGIISDAPINEVARFNLMQVGRLLQQLAMTGSEEGDPRTKSSLGKFDKSCVAAFLDVVIGGRAVETPPLSSVNLLEGLSRTVVYITYSQLITLVNFMKSVMSGDQLREDRMALDNLLANLPPAKPGKSSSLEMTPYNTPQLSPATTPANKKNRLPIATRSRSRTNMLMDLHMDHEGSSQETIQEVQPEEVLVISLGTGPQLTPGMMSENEVLNMQLSDGGQGDVPVDENKLHGKPDKTLRFSLCSDNLEGISEGPSNRSNSVSSLDLEGESVSELGAGPSGSNGVEALQLLEHEQATTQDNLDDKLRKFEIRDMMGLTDDRDISETVSETWSTDVLGSDFDPNIDEDRLQEIAGAAAENMLGSLLCLPGSGSVLLDPCTGSTISETTSEAWSVEVLPSDSEAPDLKQEERLQELESCSGLGSTSDDTDVREVSSRPSTPGLSVVSGISATSEDIPNKIEDLRSECSSDFGGKDSVTSPDMDEITHGAHQLTSPPSQSESLLAMFDPLSSHEGASAVVRPKVHYARPSHPPPDPPILEGAVGGNEARLPNFGSHVLTPAEMEAFKQRHSYPERLVRSRSSDIVSSVRRPMSDPSWNRRPGNEERELPPAAAIGATSLVAAPHSSSSSPSKDSSRGETEERKDSDDEKSDRNRPWWRKRFVSAMPKAPIPFRKKEKQEKDKDDLGPDRFSTLTDDPSPRLSAQAQVAEDILDKYRNAIKRTSPSDGAMANYESTGDNHDRDLSSKLLYHSDKEVMGDGESAHDSPRDEALQNISADDLPDSASQAAHPQDSAFSYRDAKKKLRLALCSADSVAFPVLTHSTRNGLPDHTDPEDNEIVCFLKVQIAEAINLQDKNLMAQLQETMRCVCRFDNRTCRKLLASIAEDYRKRAPYIAYLTRCRQGLQTTQAHLERLLQRVLRDKEVANRYFTTVCVRLLLESKEKKIREFIQDFQKLTAADDKTAQVEDFLQFLYGAMAQDVIWQNASEEQLQDAQLAIERSVMNRIFKLAFYPNQDGDILRDQVLHEHIQRLSKVVTANHRALQIPEVYLREAPWPSAQSEIRTISAYKTPRDKVQCILRMCSTIMNLLSLANEDSVPGADDFVPVLVFVLIKANPPCLLSTVQYISSFYASCLSGEESYWWMQFTAAVEFIKTIDDRK
As to B4, the “Difference (log2), PP1 vs untreated” value in assay [1] (setting [2]) was -1.38 log2. The “Difference (log2), untreated vs GFP” value in the assay with GFP-14-3-3β (setting [3]) worked out at 4.189 log2.

B5: NEXN (protein, UniProt Q0ZGT2 1-675, looked up)
Nexilin: MNDISQKAEILLSSSKPVPKTYVPKLGKGDVKDKFEAMQRAREERNQRRSRDEKQRRKEQYIREREWNRRKQEIKEMLASDDEEDVSSKVEKAYVPKLTGTVKGRFAEMEKQRQEEQRKRTEEERKRRIEQDMLEKRKIQRELAKRAEQIEDINNTGTESASEEGDDSLLITVVPVKSYKTSGKMKKNFEDLEKEREEKERIKYEEDKRIRYEEQRPSLKEAKCLSLVMDDEIESEAKKESLSPGKLKLTFEELERQRQENRKKQAEEEARKRLEEEKRAFEEARRQMVNEDEENQDTAKIFKGYRPGKLKLSFEEMERQRREDEKRKAEEEARRRIEEEKKAFAEARRNMVVDDDSPEMYKTISQEFLTPGKLEINFEELLKQKMEEEKRRTEEERKHKLEMEKQEFEQLRQEMGEEEEENETFGLSREYEELIKLKRSGSIQAKNLKSKFEKIGQLSEKEIQKKIEEERARRRAIDLEIKEREAENFHEEDDVDVRPARKSEAPFTHKVNMKARFEQMAKAREEEEQRRIEEQKLLRMQFEQREIDAALQKKREEEEEEEGSIMNGSTAEDEEQTRSGAPWFKKPLKNTSVVDSEPVRFTVKVTGEPKPEITWWFEGEILQDGEDYQYIERGETYCLYLPETFPEDGGEYMCKAVNNKGSAASTCILTIESKN
Consider B5, for which the “Difference (log2), PP1 vs untreated” value in assay [1] (setting [2]) is -1.398 log2. Besides, in the assay on GFP-14-3-3β (setting [3]), the “Difference (log2), untreated vs GFP” value worked out at 0.832 log2.

B6: FBL (protein, UniProt P22087 1-321, looked up)
rRNA 2'-O-methyltransferase …: MKPGFSPRGGGFGGRGGFGDRGGRGGRGGFGGGRGRGGGFRGRGRGGGGGGGGGGGGGRGGGGFHSGGNRGRGRGGKRGNQSGKNVMVEPHRHEGVFICRGKEDALVTKNLVPGESVYGEKRVSISEGDDKIEYRAWNPFRSKLAAAILGGVDQIHIKPGAKVLYLGAASGTTVSHVSDIVGPDGLVYAVEFSHRSGRDLINLAKKRTNIIPVIEDARHPHKYRMLIAMVDVIFADVAQPDQTRIVALNAHTFLRNGGHFVISIKANCIDSTASAEAVFASEVKKMQQENMKPQEQLTLEPYERDHAVVVGVYRPPPKVKN
Regarding B6, in assay [1] (setting [2]), the “Difference (log2), PP1 vs untreated” value is given as -1.367 log2. Also, the “Difference (log2), untreated vs GFP” value in the assay on GFP-14-3-3β (setting [3]) was 2.48 log2.

B7: KANK1 (protein, UniProt Q14678 1-1352, looked up)
KN motif and ankyrin repeat …: MAHTTKVNGSASGKAGDILSGDQDKEQKDPYFVETPYGYQLDLDFLKYVDDIQKGNTIKRLNIQKRRKPSVPCPEPRTTSGQQGIWTSTESLSSSNSDDNKQCPNFLIARSQVTSTPISKPPPPLETSLPFLTIPENRQLPPPSPQLPKHNLHVTKTLMETRRRLEQERATMQMTPGEFRRPRLASFGGMGTTSSLPSFVGSGNHNPAKHQLQNGYQGNGDYGSYAPAAPTTSSMGSSIRHSPLSSGISTPVTNVSPMHLQHIREQMAIALKRLKELEEQVRTIPVLQVKISVLQEEKRQLVSQLKNQRAASQINVCGVRKRSYSAGNASQLEQLSRARRSGGELYIDYEEEEMETVEQSTQRIKEFRQLTADMQALEQKIQDSSCEASSELRENGECRSVAVGAEENMNDIVVYHRGSRSCKDAAVGTLVEMRNCGVSVTEAMLGVMTEADKEIELQQQTIESLKEKIYRLEVQLRETTHDREMTKLKQELQAAGSRKKVDKATMAQPLVFSKVVEAVVQTRDQMVGSHMDLVDTCVGTSVETNSVGISCQPECKNKVVGPELPMNWWIVKERVEMHDRCAGRSVEMCDKSVSVEVSVCETGSNTEESVNDLTLLKTNLNLKEVRSIGCGDCSVDVTVCSPKECASRGVNTEAVSQVEAAVMAVPRTADQDTSTDLEQVHQFTNTETATLIESCTNTCLSTLDKQTSTQTVETRTVAVGEGRVKDINSSTKTRSIGVGTLLSGHSGFDRPSAVKTKESGVGQININDNYLVGLKMRTIACGPPQLTVGLTASRRSVGVGDDPVGESLENPQPQAPLGMMTGLDHYIERIQKLLAEQQTLLAENYSELAEAFGEPHSQMGSLNSQLISTLSSINSVMKSASTEELRNPDFQKTSLGKITGNYLGYTCKCGGLQSGSPLSSQTSQPEQEVGTSEGKPISSLDAFPTQEGTLSPVNLTDDQIAAGLYACTNNESTLKSIMKKKDGNKDSNGAKKNLQFVGINGGYETTSSDDSSSDESSSSESDDECDVIEYPLEEEEEEEDEDTRGMAEGHHAVNIEGLKSARVEDEMQVQECEPEKVEIRERYELSEKMLSACNLLKNTINDPKALTSKDMRFCLNTLQHEWFRVSSQKSAIPAMVGDYIAAFEAISPDVLRYVINLADGNGNTALHYSVSHSNFEIVKLLLDADVCNVDHQNKAGYTPIMLAALAAVEAEKDMRIVEELFGCGDVNAKASQAGQTALMLAVSHGRIDMVKGLLACGADVNIQDDEGSTALMCASEHGHVEIVKLLLAQPGCNGHLEDNDGSTALSIALEAGHKDIAVLLYAHVNFAKAQSPGTPRLGRKTSPGPTHRGSFD
Consider B7, for which, in assay [1] (setting [2]), the “Difference (log2), PP1 vs untreated” value is -1.352 log2. In addition, the “Difference (log2), untreated vs GFP” value in the assay with GFP-14-3-3β (setting [3]) worked out at 3.839 log2.

The record behind these values is PMC7367873, “Dissecting the sequence determinants for dephosphorylation by the catalytic subunits of phosphatases PP1 and PP2A” (Nature Communications, 2020).
